Experimental data taken from the supplement of paper PMC9170038.

Tested on: MS2 coat protein
Test: apparent KD of MS2 coat protein; designed switch direction (-1 OFF switch, 1 ON switch): -1; higher = weaker reporter binding
How it was run: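 Three titration conditions were used: no input, 200 uM small-molecule ligand, and an oligonucleotide input. In each, SNAP-549-labelled MS2 coat protein was raised from 0.7 or 1.5 nM, doubling, to 3 µM over designed RNA switches transcribed on Illumina chips by stalled E. coli RNA polymerase. Curve fits of normalised cluster fluorescence gave values whose per-design median over clusters is the apparent KD.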

[1] = Eterna round: R95, input ligand: microRNA oligo, concentration not stated
[2] = input ligand: microRNA oligo, concentration not stated
[3] = Eterna round: R95, input ligand: FMN 200 uM
[4] = Eterna round: R95, input ligand: none

Row | Sequence | apparent KD of MS2 coat protein (input ligand: FMN 200 uM) | apparent KD of MS2 coat protein (input ligand: none) | apparent KD of MS2 coat protein [1] | apparent KD of MS2 coat protein [2] | apparent KD of MS2 coat protein [3] | apparent KD of MS2 coat protein [4]
1 | UAAACAAGCUUAAGAUCCUACAUGAGGAUCACCCAUGUGCUCGUCUUAUAAGGUACUGUGACGAAAGUCACGGUACC [JL TOV1 3.06] (Eterna round: R97, puzzle: Sensor, turn-off variant 1) | 226 nM | 194 nM |  |  |  | 
2 | UAAACAUGGAUAUAACAGUACAUGAGGAUCACCCAUGUUAAUACGAUAGAUUAUAACAAGCUUUUUUGUCGUCUUAA [Cooked Book] (Eterna round: R97, puzzle: Sensor, turn-off variant 1) | 116 nM | 85.4 nM |  |  |  | 
3 | UAAAGAUAAGGAUAUUGAAGGUUCGACAUGAGGAUCACCCAUGUUAUGUUGGAAAAGGGACAAGAAGGUAUGAAAU [salish99_ex5_r4_207] (Eterna round: R97, puzzle: Exclusion 5) | 35.9 nM | 37 nM |  |  |  | 
4 | UAAAGUAUAUAGGAUAUCUAGCUGGUAACAGCUAGAGAAGGAUGUACAUGAGGAUCACCCAUGUAAAUCAUGAA [Ex6/16-A2] (Eterna round: R97, puzzle: Exclusion 6) | 20.8 nM | 17.3 nM |  |  |  | 
5 | UAAAUGUGAGGAUAUCAGGUGUGCUAGCGUACUGGUACAUCUGAGAAGGCACAUGAGGAUCACCCAUGUUCCUU [Mat - Exclusion 4 - Mod of JL - D49] (puzzle: Exclusion 4) |  |  | 16.7 nM |  |  | 
6 | UAACAAAUGGUCAGGAUAUCAUUCCCGGCCCAGAGUGAGAAGGGACAUGAGGAUCACCCAUGUGUGAUUCUCAU [jl-ex4-4.55 ViennaUCT mod] (Eterna round: R97, puzzle: Brourd's mod of Exclusion 4) | 128 nM | 97.1 nM |  |  |  | 
7 | UAACAUGUAGAAGGAUAUCUGCACGAUUAGUGCAGAGAAGGUCUAACAUGAGGAUCACCCAUGUAGAUCAUUAAUUAAUUAAUU [ENG1/8-B1] (Eterna round: R96, puzzle: Exclusion NG 1) | 15.2 nM | 12.4 nM |  | 8.43 nM |  | 
8 | UAAGAUUACCGAGGAUAUGGUGGUUUCUAUUAACCAGAAGGCGGACUCAACAUGAGGAUCACCCAUGUAUAAAGGGUAUUAGAU [Ex NG1 #8] (Eterna round: R96, puzzle: Exclusion NG 1) | 134 nM | 144 nM |  | 112 nM |  | 
9 | UAAGUGCUGCGAGGAUAUACAUGAGGAUCACCCAUGUGGAUGUCUGAGGCUUUGCCUCAGACGAUGUAGAAGGCGCAGUACAAU [Mat - Exclusion NG 2 - Mod of JL - D51] (Eterna round: R96, puzzle: Exclusion NG 2) | 77.3 nM | 20.6 nM |  | 11.1 nM |  | 
10 | UAAGUUUACCGAGGAUAUGGUUUUUCCUAUUAACCAGAAGGCGGACUCAACAUGAGGAUCACCCAUGUAUAAAGGGUAUUAGGU [JR_ExcNG1_Sub044] (Eterna round: R96, puzzle: Exclusion NG 1) | 88.5 nM | 74.2 nM |  | 68 nM |  | 
11 | UAAGUUUUGGUAGGAUAUACUUUAAAUUUCUCUAUCCAUACAUGAGGAUCACCCAUGUUUACAUUGUAGAAGGACCUUUAUGUU [JR_ExcNG2_Sub057] (Eterna round: R96, puzzle: Exclusion NG 2) |  |  |  | 30.2 nM |  | 
12 | UAAUAAAGUGUGAGGAUAUGCUGGUCCUUAGAUCAGCAGAAGGCACAUGAGGAUCACCCAUGUAAUAUAUAAAU [Mat - Exclusion 4 - JL Mod - D56] (Eterna round: R96, puzzle: Brourd's mod of Exclusion 4) |  |  |  | 29 nM |  | 
13 | UAAUAAAGUGUGAGGAUAUGCUGGUCCUUAGAUCAGCAGAAGGCACAUGAGGAUCACCCAUGUAAUAUAUAAAU [Mat - Exclusion 4 - JL Mod - D56] (puzzle: Brourd's mod of Exclusion 4) |  |  | 22.8 nM |  | 245 nM | 30.3 nM
14 | UAAUAACAUGUAGGAUAUGCGUGGCGAAGCUAUGCAGAAGGACAUGAGGAUCACCCAUGUUAAAGCGUCUGAGAACAGAUGCGA [Mat - Exclusion NG 1 - Mod of JL - D98] (Eterna round: R96, puzzle: Exclusion NG 1) | 165 nM | 30.5 nM |  | 24.9 nM |  | 
15 | UAAUACAAGUAAGGAUUCUACAUGAGGAUCACCCAUGUGCUCGUCUUAUAAAGUACUAUCACGAAAGUGAUAGUACU [Mat - Sensor v3 - turn-off var 1 - Eli Mod - D100] (puzzle: Sensor v3, turn-off variant 1) |  |  | 199 nM |  | 21.8 nM | 22.5 nM
16 | UAAUAUCUGUAGGAUAUCAGUGGAGAACACGUAUGAGAAGGGCAGACAUGAGGAUCACCCAUGUAUAGGGUCCG [BotMod 6 - Jieux - Exclusion 6] (Eterna round: R97, puzzle: Exclusion 6) | 59.1 nM | 20.2 nM |  |  |  | 
17 | UAAUGCAAGCAAAGAUCUUACAUGAGGAUCACCCAUGUGCUCGUCUUAUAAAGUACUAUCACGAAAGUGAUAGUACA [Mat - Sensor v3 - turn-off var 1 - Eli Mod - D91] (puzzle: Sensor v3, turn-off variant 1) |  |  | 109 nM |  | 27.6 nM | 26.3 nM
18 | UAAUGCAAGCAAAGAUCUUACAUGAGGAUCACCCAUGUGCUCGUCUUAUAAAGUACUAUCACGAAAGUGAUAGUACU [Mat - Sensor v3 - turn-off var 1 - Eli Mod - D92] (puzzle: Sensor v3, turn-off variant 1) |  |  | 129 nM |  | 31.5 nM | 25.2 nM
19 | UAAUGUGCGAGAGGAUAUCGUGUACAAAGUACACGAGAAGGCUUCACAUGAGGAUCACCCAUGUAUCGAGGUGAAACACCUUGG [Omei Exc(NG)1 Bv2] (Eterna round: R96, puzzle: Exclusion NG 1) | 703 nM | 318 nM |  | 285 nM |  | 
20 | UAAUUAAUAAGAUCAAUUAAUUAACAUGAGGAUCACCCAUGUGAGGAUAUCAGCUCGUGUAGAGCUGAGAAGGCACAAUAAUUA [ExNG3/17-C3] (Eterna round: R96, puzzle: Exclusion NG 3) | 203 nM | 51.9 nM |  | 38.8 nM |  | 
21 | UAAUUAAUUAAUAAAUAAUACAUGAGGAUCACCCAUGUAGAUCCUACAUACAAUUUAAGUAGCUCGUCUUAUUAUUA [Sensor-V1 #61] (Eterna round: R97, puzzle: Sensor, turn-off variant 1) | 200 nM | 255 nM |  |  |  | 
22 | UAAUUUUUAGUAAGGAUAUCGGUCCCAAGGGACAACGAGAAGGUACAUGAGGAUCACCCAUGUGAAAUAAGAAU [Mod of Zala 4 - Jieux - Brourd's Mod of Exclusion 4] (Eterna round: R97, puzzle: Brourd's mod of Exclusion 4) | 27.9 nM | 17.3 nM |  |  |  | 
23 | UACACUGCAUGAGGAUCAAACAUGAGGAUCACCCAUGUAUAACAAGCUUUUUGCACGUCUUAUAAUUAUGUAGUGUA [Electric Eye 14 - Jieux - Sensor, turn-off variant 1] (Eterna round: R97, puzzle: Sensor, turn-off variant 1) | 15.3 nM | 16.2 nM |  |  |  | 
24 | UACAUGAGGAUCACCCAUGUUUUGUCGUGUAUGGUAAUAAUCUAGGAUAUCAAUUUAUUUAUUUAUGAGAAGGAGAAUAAUAAA [JMF's solution 4] (Eterna round: R96, puzzle: Exclusion NG 3) | 67.1 nM | 61.7 nM |  | 55.9 nM |  | 
25 | UACAUGAGGAUCACCCAUGUUUUGUCGUGUAUGGUAUUUAUCUAGGAUAUCAAUUGAUUAAUUUAUGAGAAGGAGAAUAUUAAU [JMF's solution 60] (Eterna round: R96, puzzle: Exclusion NG 3) | 39.9 nM | 34.4 nM |  | 39.1 nM |  | 
26 | UACAUGAGGAUCACCCAUGUUUUGUCGUGUAUGGUAUUUAUCUAGGAUAUCAAUUGGUUUAUUUAUGAGAAGGAGAAUAUUAAU [JMF's solution 57] (Eterna round: R96, puzzle: Exclusion NG 3) | 36.1 nM | 33.3 nM |  | 31.6 nM |  | 
27 | UACAUGAGGAUCACCCAUGUUUUGUCGUGUAUGGUAUUUAUCUAGGAUAUCAAUUUAGUUAUUUAUGAGAAGGAGAAUAUUAAU [JMF's solution 18] (Eterna round: R96, puzzle: Exclusion NG 3) | 33.6 nM | 43.1 nM |  | 32.8 nM |  | 
28 | UACCUGAGGCUUUGCUUUAGGCUUACAUGAGGAUCACCCAUGUAGGAUAUGGUAGGCUUUGCUUACCAGAAGGACAUGGAAAUU [Mat - Exclusion NG 3 - Mod of JL - D20] (Eterna round: R96, puzzle: Exclusion NG 3) | 349 nM | 70.7 nM |  | 63 nM |  | 
